From article PMC5436050

Biological target: H1G101C, a mutant of X. laevis linker histone H1°, labeled with Cy5 (Xenopus laevis) (UniProt P22844)

Sequence of N-terminally His6-tagged yeast Nap1 (P25293 whole entry): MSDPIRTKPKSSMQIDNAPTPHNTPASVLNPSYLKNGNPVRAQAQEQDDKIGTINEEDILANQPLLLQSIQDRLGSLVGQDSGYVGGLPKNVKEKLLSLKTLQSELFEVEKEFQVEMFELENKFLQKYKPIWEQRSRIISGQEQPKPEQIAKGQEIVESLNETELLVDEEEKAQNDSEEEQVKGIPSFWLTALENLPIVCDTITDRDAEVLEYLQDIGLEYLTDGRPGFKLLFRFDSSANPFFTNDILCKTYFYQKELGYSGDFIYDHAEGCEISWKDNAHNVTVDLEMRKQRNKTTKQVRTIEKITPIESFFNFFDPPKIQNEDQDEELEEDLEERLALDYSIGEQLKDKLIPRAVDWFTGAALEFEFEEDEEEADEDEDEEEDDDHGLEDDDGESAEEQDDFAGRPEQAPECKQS

## N-terminally His6-tagged yeast Nap1 (from UniProt P25293 1-417) (natural protein)
  percent of nucleosomes still bound with H1 with 60 nM Nap1: 17.5%
